Test results reported in US20230110188A1 (ARGENX IIP, published 2023).
Residue numbers refer to the chain shown, from its start.

B1: 3D10a (antibody, human IgG1, kappa, L234A L235A, V domains shown)
VH: EVQLVESGGGLVKPGGSLRLSCAASGFTFSASTMAWVRQAPGKGLEWVSSVSGDSHHIYYADSLKGRFTISRDNAKNSLYLQMNSLRAEDTAVYYCARERLLRLGVGFDSWGQGTLVTVSS
VL: DIQMTQSPSSLSASVGDRVTITCRASQRISGFVNWYQQKPGKAPKLLIYAASTLQSGVPSRFSGSGSGTDFTLTISSLQPEDFATYYCQQSYSPLYTFGQGTKLEIKR
B2: 3D9b (antibody, human IgG1, kappa, L234A L235A, V domains shown)
VH: EVQLVESGGGLVKPGGSLRLSCAASGFTFSTYTMHWVRQAPGKGLEWVSSISSRSAYKYYADSVKGRFTISRDNAKNSLYLQMNSLRAEDTAVYYCARDFFQLGPPRFDSWGQGTLVTVSS
VL: B1 VL with G31S, V33L, A50G, T53N, L95S
B3: 3F6c (antibody, human IgG1, kappa, L234A L235A, V domains shown)
VH: EVQLVESGGGLVKPGGSLRLSCAASGFTFSSYTMDWVRQAPGKGLEWVSSIGSNGDYIYYADSVRGRFTISRDNAKNSLYLQMNSLRAEDTAVYYCARGQLAVAGTHFDYWGQGTLVTVSS
VL: B1 VL with R28K, I29V, S30N, G31K, F32Y, Y96S
B4: 4D3 (antibody, human IgG1, kappa, L234A L235A, V domains shown)
VH: B1 VH with A31S, S32Y, A35T, V51I, G53S, D54G, S55G, H57Y, A61T, S110F
VL: B1 VL with R28S, F32Y, V33L, P94A

biological target: T1, Mouse MuSK as it stands on mouse muscle (neuromuscular junctions, C2C12 myotubes) (mouse, UniProt Q61006 22-868); assay: cell-based or functional assay
T1 sequence (looked up): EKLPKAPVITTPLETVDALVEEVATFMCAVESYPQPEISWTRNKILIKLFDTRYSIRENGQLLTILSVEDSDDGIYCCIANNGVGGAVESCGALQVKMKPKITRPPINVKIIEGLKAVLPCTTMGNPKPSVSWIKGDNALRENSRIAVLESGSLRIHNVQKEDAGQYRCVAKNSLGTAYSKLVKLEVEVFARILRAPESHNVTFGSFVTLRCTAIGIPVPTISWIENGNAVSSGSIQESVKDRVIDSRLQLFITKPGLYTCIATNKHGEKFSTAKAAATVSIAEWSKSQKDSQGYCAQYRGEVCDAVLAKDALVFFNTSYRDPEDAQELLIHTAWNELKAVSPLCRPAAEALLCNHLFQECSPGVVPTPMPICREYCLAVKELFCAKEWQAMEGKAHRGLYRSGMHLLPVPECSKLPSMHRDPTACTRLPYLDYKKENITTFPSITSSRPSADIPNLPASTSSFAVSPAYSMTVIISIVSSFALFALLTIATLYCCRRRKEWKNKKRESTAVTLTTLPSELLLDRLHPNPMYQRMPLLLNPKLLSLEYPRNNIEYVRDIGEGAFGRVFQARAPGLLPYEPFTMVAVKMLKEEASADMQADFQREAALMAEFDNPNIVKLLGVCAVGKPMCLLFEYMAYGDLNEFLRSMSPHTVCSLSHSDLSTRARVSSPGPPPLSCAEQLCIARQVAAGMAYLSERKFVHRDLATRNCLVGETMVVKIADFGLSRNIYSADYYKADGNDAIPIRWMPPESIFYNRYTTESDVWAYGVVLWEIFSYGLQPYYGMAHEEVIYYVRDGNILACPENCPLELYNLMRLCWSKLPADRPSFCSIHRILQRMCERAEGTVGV

| Binder | AChR clusters larger or equal to 3 µm compared to agrin; antibody 0.11 µg/mL | AChR clusters larger or equal to 3 µm compared to agrin; antibody 1.1 µg/mL | AChR clusters larger or equal to 3 µm compared to agrin; antibody 11 µg/mL | AChR clusters larger or equal to 3 µm compared to agrin; antibody 110 µg/mL |
| --- | --- | --- | --- | --- |
| B1 | 80 % of agrin | 79 % of agrin | 76 % of agrin | 73 % of agrin |
| B2 | 65 % of agrin | 99 % of agrin | 93 % of agrin | 84 % of agrin |
| B3 | 74 % of agrin | 57 % of agrin | 62 % of agrin | 61 % of agrin |
| B4 | 63 % of agrin | 80 % of agrin | 80 % of agrin | 75 % of agrin |

biological target: T1, Mouse MuSK as it stands on mouse muscle …; assay: cell-based or functional assay; remark: another data set of the same source

| Binder | AChR clusters larger or equal to 3 µm compared to agrin; Exp 1, batch Argenx | AChR clusters larger or equal to 3 µm compared to agrin; Exp 2, batch Argenx | AChR clusters larger or equal to 3 µm compared to agrin; Exp 3, batch UPX |
| --- | --- | --- | --- |
| B1 | 64 % of agrin | 99 % of agrin | 71 % of agrin |
| B2 | 89 % of agrin | 95 % of agrin | 91 % of agrin |
| B3 | 71 % of agrin | 105 % of agrin | 69 % of agrin |
| B4 | 102 % of agrin | 73 % of agrin | 72 % of agrin |

biological target: T2, Human MuSK (R&D Systems, cat. 10189-MK, histidine tag) (human, UniProt O15146 24-495); assay: SPR (Biacore), MuSK-coated chip presaturated with 500 nM 3F6c (competitor)
T2 construct: Bought protein; also called human monomeric MuSK-6xhis; not shown: histidine tag (6xhis)
T2 sequence: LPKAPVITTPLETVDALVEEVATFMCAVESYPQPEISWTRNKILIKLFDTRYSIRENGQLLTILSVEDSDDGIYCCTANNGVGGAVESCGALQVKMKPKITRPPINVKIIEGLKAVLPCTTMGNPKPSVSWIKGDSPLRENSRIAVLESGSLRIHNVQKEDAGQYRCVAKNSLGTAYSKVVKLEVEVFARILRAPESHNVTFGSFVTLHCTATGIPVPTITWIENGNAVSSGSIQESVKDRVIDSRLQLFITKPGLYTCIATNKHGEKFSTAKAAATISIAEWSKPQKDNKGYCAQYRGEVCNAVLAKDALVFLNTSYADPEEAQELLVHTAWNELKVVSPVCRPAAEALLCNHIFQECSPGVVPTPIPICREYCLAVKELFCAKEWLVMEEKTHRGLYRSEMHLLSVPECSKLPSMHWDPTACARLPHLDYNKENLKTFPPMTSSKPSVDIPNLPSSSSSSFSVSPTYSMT
Experimental: (§1) A chip was coated with ˜5000 RU of human MuSK (Lot nr DHUCO 11908A, batch nr 1089_MK). In a first experiment the saturating concentration of the pre-leads was determined. This is the concentration where the amplitude of a specific pre-lead doesn't increase anymore when additional pre-lead is injected on the immobilized MuSK.

| Binder | amplitude of prelead after presaturating MuSK (RU) | extra amplitude (%) | normalized extra amplitude (%) |
| --- | --- | --- | --- |
| B1 | 75 | 3.2 | 1.4 |
| B2 | 191 | 11.5 | 9.7 |
| B3 | 64 | 1.8 | 0 |
| B4 | 68 | 2.8 | 1.1 |

biological target: T2, Human MuSK (R&D Systems, cat. 10189-MK, …); assay: SPR (Biacore), antibody captured on anti-hFc chip; 1.25 nM; dissociation pH 7.4
Description: (§2) In order to study pH dependent binding of our antibodies to MuSK, the Biacore was used with the same setup as described in the paragraph entitled “Binding affinity for mouse, human and rhesus monkey recombinant MuSK in Biacore”. 6. […] For the other antibodies there is no real difference observed between pH 7.4 and 5.5.

| Binder | koff [s⁻¹] |
| --- | --- |
| B1 | 0.00016 |
| B2 | 0.00014 |
| B3 | 7e-05 |
| B4 | 0.00015 |

biological target: T2, Human MuSK (R&D Systems, cat. 10189-MK, …); assay: SPR (Biacore), antibody captured on anti-hFc chip; average of 0.3125-10 nM; dissociation pH 5.5
Description: as §2

| Binder | koff [s⁻¹] |
| --- | --- |
| B1 | 9e-05 |
| B2 | 4e-05 |
| B3 | 0.0002 |
| B4 | 0.00016 |

biological target: T2, Human MuSK (R&D Systems, cat. 10189-MK, …); assay: SPR (Biacore), antibody captured on anti-hFc chip; 5 nM; dissociation pH 5.5
Description: as §2

| Binder | koff [s⁻¹] |
| --- | --- |
| B1 | 0.0001 |
| B2 | 4e-05 |
| B3 | 0.0002 |
| B4 | 0.00018 |

biological target: T2, Human MuSK (R&D Systems, cat. 10189-MK, …); assay: SPR (Biacore), MuSK-coated chip, antibody alone (run of first antibody 3D9b)
Experimental: as §1

| Binder | amplitude of prelead without presaturating MuSK (RU) |
| --- | --- |
| B1 | 189 |
| B2 | 3970 |
| B3 | 235 |
| B4 | 188 |

biological target: T2, Human MuSK (R&D Systems, cat. 10189-MK, …); assay: SPR (Biacore), MuSK-coated chip presaturated with 500 nM 4D3 (competitor)
Experimental: as §1

| Binder | amplitude of prelead after presaturating MuSK (RU) | extra amplitude (%) | normalized extra amplitude (%) |
| --- | --- | --- | --- |
| B1 | 68 | 7.2 | 1.9 |
| B2 | 163 | 14.9 | 9.6 |
| B3 | 59 | 5.8 | 0.6 |
| B4 | 45 | 5.2 | 0 |

biological target: T2, Human MuSK (R&D Systems, cat. 10189-MK, …); assay: SPR (Biacore), MuSK-coated chip presaturated with 500 nM 3D9b (competitor)
Experimental: as §1

| Binder | amplitude of prelead after presaturating MuSK (RU) | extra amplitude (%) | normalized extra amplitude (%) |
| --- | --- | --- | --- |
| B1 | -1 | -0.5 | -1.5 |
| B2 | 40 | 1 | 0 |
| B3 | -5 | -2.1 | -3.1 |
| B4 | -3 | -1.6 | -2.6 |

biological target: T2, Human MuSK (R&D Systems, cat. 10189-MK, …); assay: SPR (Biacore), antibody captured on anti-hFc chip; 1.25 nM; dissociation pH 5.5
Description: as §2

| Binder | koff [s⁻¹] |
| --- | --- |
| B1 | 7e-05 |
| B2 | 3e-05 |
| B3 | 0.00018 |
| B4 | 0.00016 |

biological target: T2, Human MuSK (R&D Systems, cat. 10189-MK, …); assay: SPR (Biacore), antibody captured on anti-hFc chip; 10 nM; dissociation pH 5.5
Description: as §2

| Binder | koff [s⁻¹] |
| --- | --- |
| B1 | 0.00011 |
| B2 | 4e-05 |
| B3 | 0.00023 |
| B4 | 0.00019 |
